Laboratory results: patent US5597569A (priority 1994, dated 1997)
Read-outs that look alike come from different tables or passages of the source.

Columns and labels:
[1] = tested on: H3396 cell membranes (BR96 antigen); format: binding, human; details: FIG. 10; ELISA, 10 μg/ml H3396 membranes
[2] = tested on: protein synthesis in rabbit reticulocyte lysate
mice [3] = details: for % Survival / LD50: mice; for % Survival: >14 days; for LD50: single dose
liver = details: for liver lesions: histochemical analysis
[4] = tested on: protein synthesis in rabbit reticulocyte lysate with wheat germ ribosomes; details: cited from earlier work
mice [5] = details: intraperitoneal, literature; cited from earlier work

B1: bryodin 2: novel type I ribosome-inactivating protein of about 27,000 daltons isolated from the roots of Bryonia dioica (SEQ ID NO: 15) (protein)
chain: MRSIGFYSVLALYVGAHVTEDVDINFSLIGATGATYKTFIRNLRTKLTVGTPRVYDIPVLRNAAAGLARFQLVTLTNYNGESVTVALDVVNVYVVAYRAGNTAYFLADASTEANNVLFAGINHVRLPYGGNYDGLETAAGRISRENIELGFSEISSAIGNMFRHNPGTSVPRAFIVIIQTVSEAARFKYIEQRVSENVGTKFKPDPAFLSLQNAWGSLSEQIQIAQTRGGEFARPVELRTVSNTPTFVTNVNSPVVKGIALLLYFRVNVGTDNVFAMSLSTY
Question: Which “binding to H3396 membranes” value [1] does the source give for B1 here?
Answer: The value was “no detectable binding”.

Question: And the EC50 [2]?
Answer: Its EC50 is 0.017 nM.

Question: And the “toxicity to mice relative to bryodin 1” value (mice [3]; i.p. and i.v.)?
Answer: The value was “slightly more toxic to mice than bryodin 1”.

Question: And the “% Survival” value (mice [3]; i.p., 7 mg/kg)?
Answer: Its value is 100%.

Question: And the “% Survival” value (mice [3]; i.p., 8 mg/kg)?
Answer: Its value is 50%.

Question: What about the “% Survival” value (mice [3]; i.p., 10 mg/kg) of the same molecule?
Answer: The value was 0%.

Question: What about the “% Survival” value (mice [3]; i.p., 12 mg/kg) of the same molecule?
Answer: Its value is 0%.

Question: And the “% Survival” value (mice [3]; i.v., 5 mg/kg)?
Answer: The value was 100%.

Question: What about the “% Survival” value (mice [3]; i.v., 6 mg/kg) of the same molecule?
Answer: The value was 100%.

Question: And the “% Survival” value (mice [3]; i.v., 7 mg/kg)?
Answer: Its value is 100%.

Question: What about the “% Survival” value (mice [3]; i.v., 8 mg/kg) of the same molecule?
Answer: Its value is 75%.

Question: What about the “% Survival” value (mice [3]; i.v., 10 mg/kg) of the same molecule?
Answer: The value was 75%.

Question: And the “% Survival” value (mice [3]; i.v., 12 mg/kg)?
Answer: Its value is 0%.

Question: What about the “% Survival” value (mice [3]; i.v., 14 mg/kg) of the same molecule?
Answer: Its value is 0%.

Question: What about the LD50 (mice [3]; intraperitoneal) of the same molecule?
Answer: Its LD50 is 8 mg/kg.

Question: And the LD50 (mice [3]; intraperitoneal, listed as BD2)?
Answer: Its LD50 is “about 8 mg/kg”.

Question: And the LD50 (mice [3]; intravenous)?
Answer: Its LD50 is “greater than 10 mg/kg”.

Question: What about the “liver protein in blood chemistry screen” value (liver; blood chemistry, data not shown) of the same molecule?
Answer: Its value is “increased liver protein”.

Question: What about the liver lesions (liver) of the same molecule?
Answer: Its liver lesions is “showed liver lesions”.

Question: And the liver lesions (liver; listed as BD2)?
Answer: Its liver lesions is “presence of liver lesions”.

Question: What about the SGOT (liver; injected mice) of the same molecule?
Answer: The SGOT was “elevated”.

Question: What about the SGPT (liver; injected mice) of the same molecule?
Answer: Its SGPT is “elevated”.

Question: What about the “cause of death at lethal dose” value (liver; necropsy) of the same molecule?
Answer: The value was “liver toxicity was the cause of death”.

B2: bryodin 1: type I ribosome-inactivating protein from the root of Bryonia dioica; 29 kDa band identical to the bryodin described by Stirpe (protein)
chain: DVSFRLSGATTTSYGVFIKNLREALPYERKVYNIPLLRSSISGSGRYTLLHLTNYADETISVAVDVTNVYIMGYLAGDVSYFFNEASATEAAKFVFKDAKKKVTLPYSGNYERLQTAAGKIRENIPLGLPALDSAITTLYYYTASSAASALLVLIQSTAESARYKFIEQQIGKRVDKTFLPSLATISLENNWSALSKQIQIASTNNGQFESPVVLIDGNNQRVSITNASARVVTSNIALLLNRNNIA
Question: Which results are given for B2?
Answer: binding to H3396 membranes [1]: no detectable binding; % Survival (mice [3]; i.p., 10 mg/kg): 100%; % Survival (mice [3]; i.p., 12 mg/kg): 100%; % Survival (mice [3]; i.p., 14 mg/kg): 100%; % Survival (mice [3]; i.p., 16 mg/kg): 100%; % Survival (mice [3]; i.v., 12 mg/kg): 100%; % Survival (mice [3]; i.v., 16 mg/kg): 100%; % Survival (mice [3]; i.v., 18 mg/kg): 100%; % Survival (mice [3]; i.v., 20 mg/kg): 100%; ID50, inhibition of protein synthesis [4]: 3.6 ng/mL; LD50 (mice [5]): 14.5 mg/kg

B3: gelonin: a type 1 ribosome-inhibiting protein (protein)
chain: GLDTVSFSTKGATYITYVNFLNELRVKLKPEGNSHGIPLLRKKCDDPGKCFVLVALSNDNGQLAEIAIDVTSVYVVGYQVRNRSYFFKDAPDAAYEGLFKNTIKTRLHFGGSYPSLEGEKAYRETTDLGIEPLRIGIKKLDENAIDNYKPTEIASSLLVVIQMVSEAARFTFIENQIRNNFQQRIRPANNTISLENKWGKLSFQIRTSGANGMFSEAVELERANGKKYYVTAVDQVKPKIALLKFVDKDPK
Question: For B3, which EC50 [2] is on record?
Answer: The EC50 was 0.049 nM.
